In the nanobody polyreactivity screen of Harvey et al. (2022):

Assay: yeast display, Sf9 membrane polyspecificity reagent, FACS + sequencing; frameworks hold sequencing errors
Procedure, shortened: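 Galactose-induced (36–48 hours) yeast carrying a synthetic nanobody display library were exposed to 10% biotinylated, detergent-solubilized Sf9 membrane reagent at 4 °C for 1 hour. FACS followed streptavidin microbead enrichment, using low and high (top ~1%) gates for expression (anti-HA) and reagent binding (streptavidin). Colony PCR, MiSeq 2 × 250 sequencing and CDR-length filtering followed. Labels for polyreactivity reflect the gate of origin.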

Sequence | polyreactivity (PSR sort gate)
QVQLVESGGGLLQAGGSLRLSCAASGFTIYGYGMGWYRQAPGKERELVAGITARGSSTYYADSVKGRFTISRDNAKNTVYLQMNSLKPEDTAVYYCNSVGARVASATGMEYWGQGTQVTVSS | high polyreactivity
QVQLVESGGGLLQAGGSLRLSCAASGGMFKYNAMGWYRQAPRKARELVPAINYSGGRTYYADSVKGRFTISRDNAKNTVYLQMTSLKPEDTAVDYCNALTRGHTGQPYTYDYWGQGTQVTVSS | high polyreactivity
QVQLVESGGGLLQAGGSLRLSCAASGGTFERNAMGWYRQAPGKERELVAAISISGGRTYYADSVKGRFTISRDNAKNTVYLQMKSLKPEDTAVYFCAAGVGSRIKQVGNDYWGQGTQVTVSS | high polyreactivity
QVQLVESGGGLLQAGGSLRLSCAASGIIFFYYSMGWYRQAPGKERELVAAISSDGSTYYADSVKGRFTSSRDNAKNTVYLQMNSLKPEDTAVDYCAAQYNHWWEYDYWGQGTQVTVSS | low polyreactivity
QVQLVESGGGLLQAGGSLRLSCAASGIIFSDYAMGRYRQAPRKERELVAAITSSGGSTYYADSVKGRFTISRDNAKNTVYLQMNSLKPEDPAVYYCAAQCYDYWYDYDYWGQGTQVTVSS | high polyreactivity
QVQLVESGGGLLQAGGSLRLSCAASGIILYWNTMGWYRQAPGKERELVAAITWSVGRTYYADSVKGRFTISRDNAKNTVYLQMNSLKPEDTAVYYCNAGYDSYSRDYWGQGTQVTVSS | low polyreactivity
QVQLVESGGGLLQAGGSLRLSCAASGITFQGYAMGWYRQAPGKERELVAAITYRGGSTYYADSVKGRFTISRDNAKNTVYLQMNSLKPEDTAVYYCARDHSRHLHPSWLDYWGQGTQVTVSS | high polyreactivity
QVQLVESGGGLLQAGGSLRLSCAASGITFTGYAMGWYRQAPGKERELVAVISETGGSTYADSVKGRFTISRDNAKNTVYLQMNSLKPEDTAVYYCAARLWWPYSTAWAKMDYWGQGTQVTVSS | low polyreactivity
QVQLVESGGGLLQAGGSLRLSCAASGLIFANYAMGWYRQAPGKERELVAAITWSGGTTYYADSVKGRFTISRDNAKNTVYLQMNSLKPEDTAVYYCAAEVPYYQAAEYDYWGQGTQVTVSS | low polyreactivity
QVQLVESGGGLLQAGGSLRLSCAASGNIFYRYAMGWYRQAPGKERELVAAISGNSGNTYYADSVKGRFTISRDNAKNTVYLQIHSLNPEDTAVYYSAAERRAFGHYSGGQGTQVTVSS | high polyreactivity
QVQLVESGGGLLQAGGSLRLSCAASGNTFITNAKGWYRQAPGKERDLVAAISSGGTTYYADSVKGRFTISRDTAKNTVYLQMYSLKPEDTAVYYCATDIHSVHNNRDKHDYDYWGQGTQVTVSS | low polyreactivity
QVQLVESGGGLLQAGGSLRLSCAASGRIFAQYAMGWYRQAPGKEREFDAGISTTGGSTYYADSVKGRFTISRDNAKNTVYLQMNSLKPEETAVYYCAADRRDRSPFYYWGQGTQVTVSS | high polyreactivity
QVQLVESGGGLLQAGGSLRLSCAASGRIFGSYAMGWYRQAPGKERELVAGIRSVGSTNYADSVKGRFTISRDNAKNTVYLQMNSLKPEDTAVYYCAARLWHLSYAGQGGDYWGQGTQVTVSS | low polyreactivity
QVQLVESGGGLLQAGGSLRLSCAASGRIFTWNAMGWYRQAPGKERELVARISSGTPTNYADSLKGRFTISRDNAKNTVYLQMNCLKPEDTAVYYCAAQSRPPFVKQYWWQRDYWGQATQVTVSS | high polyreactivity
QVQLVESGGGLLQAGGSLRLSCAASGRIFVNYAMGWYRQAPGKERELVAVISRSGGGTNYADSVKGRFTISRDNAKNTVYLQMNSLKQEDTAVYYCAADSYYYPYDYWGQGTQVTVSS | high polyreactivity
QVQLVESGGGLLQAGGSLRLSCAASGRIIGWYAMGWYRPAPGKERELVAAISRGGTRTNYADSVKGRFTISRDNAKNTVYLQMNSLKPEDTAVYSCAAGGSWCQNGYWGQGTQVTVSS | high polyreactivity
QVQLVESGGGLLQAGGSLRLSCAASGRTFGFYTMGWYRQAPGKERELVAGISRGGSTTYADSVKGRFTISRDNAKKTVYVEMNSLKQEDTAVYYSNADRSHYWLPYGVRFDYWGLGTQVTVSS | low polyreactivity
QVQLVESGGGLLQAGGSLRLSCAASGRTFHTYAMGWYRHAPGKERELVAAISRSGGSTYYADSVKGRFTISRDNAMNPVYLQMNSLKPEDTAVYYCADTAGYWGQGTQVTVSS | high polyreactivity
QVQLVESGGGLLQAGGSLRLSCAASGRTFKYYAMGWYRQAPGKERELVAAISHSGGSTYYADSVKGRFTISRDNAKNTVYLQMNSLKPEDTAVYYCAADHGDGNYPYYYWGQGTQVTVSS | high polyreactivity
QVQLVESGGGLLQAGGSLRLSCAASGRTFYQYAMGWYRKAPGKDRELVAAITTSGRSTYYADSVKGRITISRDNAKNTVYLQMNRLKPEDTAVYYCNKDLSSTIFDYWGQGTQVTVSS | low polyreactivity
QVQLVESGGGLLQAGGSLRLSCAASGRTIDVYAMGWYTQAPGKERELVAAISWSGGGTYYADSVKGRFTISRDNAKNTVYFQMHSLKAEDTAVYYCAAALTFALDPNRYTYSDYYYWGQGTQVTVSS | low polyreactivity
